Data published in paper PMC5680779.

Target: HIV-1 Integrase (IN) from NL4-3, Flag-tagged (HIV-1 NL4-3)
Test: AlphaScreen or HTRF; HTRF-based IN-IN multimerization assay with Flag-tagged and His-tagged IN from NL4-3; with the small molecule MUT-A, signal compared to the IN-IN signal without MUT-A

HIV-1 Integrase (IN) from NL4-3, Flag-tagged (enzyme)
maximum multimerization signal plateau with MUT-A (percent of the IN-IN signal without MUT-A): 600%
